Assay results as given in article PMC6693564, “RGG-motif self-association regulates eIF4G-binding translation repressor protein Scd6” (RNA Biology, 2019).
Values belong to the binder of their own block, whether it stands above or below them.

Tests used:
[1] = target: T1, HisSbp1FLAG (recombinant) (yeast, UniProt P10080 1-294); assay: pull-down; FLAG pull-down of purified Sbp1FLAG with purified Sbp1GFP or Sbp1GFPΔRGG in the presence of RNase A; 450 nM proteins; blots with anti-GFP and anti-FLAG; conditions: both partners purified
T1 construct: Sbp1, yeast; also called full-length Sbp1FLAG; source: E. coli XL1-Blue, purified (Ni-NTA)
T1 sequence (looked up): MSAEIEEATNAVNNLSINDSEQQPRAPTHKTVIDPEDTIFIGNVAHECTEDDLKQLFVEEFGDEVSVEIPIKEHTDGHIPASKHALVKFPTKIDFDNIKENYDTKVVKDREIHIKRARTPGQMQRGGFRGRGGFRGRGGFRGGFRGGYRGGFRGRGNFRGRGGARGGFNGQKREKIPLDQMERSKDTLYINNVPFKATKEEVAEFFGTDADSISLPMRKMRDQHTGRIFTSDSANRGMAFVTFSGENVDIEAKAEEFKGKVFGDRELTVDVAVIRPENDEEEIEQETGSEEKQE

GSTScd6 (recombinant) = target: T2, GSTScd6 (recombinant) (yeast, UniProt P45978 1-349); assay: pull-down; 450 nM purified proteins with glutathione sepharose beads, 2 h at 4°C, 50mM HEPES pH7, 100mM NaCl, 1mM DTT, 2mM MnCl2, 2mM MgCl2, 1% Triton-X100, 10% glycerol, 0.25mg/ml RNase A, 10mg/ml BSA; GST fusion as bait; anti-FLAG blot; for Figure 5e Scd6FLAG first incubated with Hmt1 with or without SAM; conditions: both partners purified
T2 construct: Scd6, yeast; also called full-length GSTScd6; source: E. coli BL21, purified (glutathione sepharose)
T2 sequence (looked up): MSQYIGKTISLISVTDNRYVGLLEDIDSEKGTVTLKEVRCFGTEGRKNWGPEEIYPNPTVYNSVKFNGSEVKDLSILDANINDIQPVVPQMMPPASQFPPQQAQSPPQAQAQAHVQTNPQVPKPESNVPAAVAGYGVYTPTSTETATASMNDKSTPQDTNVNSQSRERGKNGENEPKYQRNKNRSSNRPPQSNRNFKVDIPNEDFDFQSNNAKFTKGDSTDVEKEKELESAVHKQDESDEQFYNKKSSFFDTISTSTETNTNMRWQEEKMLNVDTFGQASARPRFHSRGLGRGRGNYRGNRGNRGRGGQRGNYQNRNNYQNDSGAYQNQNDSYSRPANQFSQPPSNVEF

[2] = target: the molecule itself; assay: SEC; Sephacryl S-200 HR (45 ml, manual), 1 mg protein in 100 µl loaded, 20mM HEPES-KOH pH7.6, 100mM KCl, 10% glycerol; standards 200, 150, 66, 29 kDa

- binding result [1]: binds
B1: HisSbp1GFP (recombinant) (natural protein, yeast, UniProt P10080 1-294, looked up)
chain: T1 sequence (looked up)
notes: Sbp1, yeast, wild type; source: E. coli XL1-Blue, purified (Ni-NTA)

- binding result (GSTScd6 (recombinant)): binds
B2: in vitro methylated Scd6FLAG (natural protein, yeast, UniProt P45978 1-349, looked up)
chain: T2 sequence (looked up)
modifications: arginine methylation by Hmt1 in vitro (stained by mono-methylarginine specific antibody); sites not given
notes: Scd6, yeast; Same protein as m4 after methylation; source: E. coli BL21, purified, then methylated in vitro by incubating with Hmt1 and SAM

B3: HisScd6FLAG (recombinant) (natural protein, yeast, UniProt P45978 1-349, looked up)
chain: T2 sequence (looked up)
notes: Scd6, yeast; predicted molecular mass of the purified protein about 41.5 kDa; also called purified Scd6; source: E. coli BL21, purified (HisTrap HP, HiTrap Heparin HP)
- stoichiometry N [2]: 2
